The target in assay [1] is Human CTLA4-FC recombinant protein (human). The assay can be described thus: competition ELISA, human CTLA4-FC coated, blocked ligand CD80-FC-HIS, anti-HIS-HRP, OD450. Background: ELISA stands for enzyme-linked immunosorbent assay.
Assay [2] concerns the target monkey CTLA4 on expressing cells (monkey). Description: cell ELISA on monkey CTLA4 expressing cells, goat anti-human IgG-HRP, OD450.
Assay [3] deals with T1, Human CTLA4-His recombinant protein (human, UniProt P16410 36-162).
T1 construct: also called CTLA4-HIS (Sino Biological); CTLA4 recombinant protein; not shown: His tag
T1 sequence (looked up): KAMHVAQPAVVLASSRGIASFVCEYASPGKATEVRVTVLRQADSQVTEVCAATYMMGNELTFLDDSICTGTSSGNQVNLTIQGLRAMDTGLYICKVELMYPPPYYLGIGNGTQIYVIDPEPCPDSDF
The assay can be described thus: OCTET (BLI), antibody on protein A biosensor, CTLA4-HIS in solution. Here is the method:
The affinity constant KD of the antibody to CTLA4 was determined using OCTET. Firstly, the protein A biosensor was used to immobilize the antibody to be detected, and the biosensors containing different antibodies were placed in the CTLA4-HIS diluent with the same concentration (Sino Biological) for binding for 4 min. The biosensor was then placed in the PBS for 400 s. The affinity constant KD of the antibody was analyzed by OCTET analysis software, KD is kd/ka.

The source of these data is patent publication US20240018243A1 (NOVOMAB BIOPHARMACEUTICALS, published 2024).

The term IC50 denotes the concentration at which inhibition is half-maximal. What is called EC50 is the concentration at which the effect is half-maximal. As usually defined, the Kd is a measure of binding affinity in units of concentration. As a reminder, the koff is the first-order rate constant of dissociation. One may read the kon as the second-order rate constant of association.

Take Isotype (antibody): the IC50 in assay [1] worked out at 43.6 nM. Isotype control (antibody) had an EC50 in assay [2] of 799 µg/mL.

B1: HCA14-KH (Fc fusion)
chain 1: ESKYGPPCPPCPAPEFLGGPSVFLFPPKPKDTLMISRTPEVTCVVVDVSQEDPEVQFNWYVDGVEVHNAKTKPREEQFNSTYRVVSVLTVLHQDWLNGKEYKCKVSNKGLPSSIEKTISKAKGQPREPQVYTLPPCQEEMTKNQVSLWCLVKGFYPSDIAVEWESNGQPENNYKTTPPVLDSDGSFFLYSRLTVDKSRWQEGNVFSCSVMHEALHNHYTQKSLSLSLGK
chain 2: EVQLLESGGGLVQPGGSLRLSCAASGSIFSINHMAWYRQAPGKQRELVAGVNSRGTTNYVDSVKGRFTISRDNSKNTLYLQMNSLRAEDTAVYYCRALGGAVAAWGQGTLVTVSSGGGGSGGGGSGGGGSESKYGPPCPPCPAPEFLGGPSVFLFPPKPKDTLMISRTPEVTCVVVDVSQEDPEVQFNWYVDGVEVHNAKTKPREEQFNSTYRVVSVLTVLHQDWLNGKEYKCKVSNKGLPSSIEKTISKAKGQPREPQVCTLPPSQEEMTKNQVSLSCAVKGFYPSDIAVEWESNGQPENNYKTTPPVLDSDGSFFLVSRLTVDKSRWQEGNVFSCSVMHEALHNHYTQKSLSLSLGK
notes: also called HCA14 -KB; monovalent antibody
For the molecule B1, in assay [3], the Kd was 13.9 nM, the koff was 0.000481 s⁻¹ and the kon came to 34500 M⁻¹ s⁻¹.
